Results on 4 molecules are retold here after article PMC5290276, “A quantized mechanism for activation of pannexin channels” (Nature Communications, 2017).

Data set [1] deals with 2(1CT)-GFP, GFP-tagged tandem dimer linking a full-length PANX1 subunit to a C-terminally truncated PANX1 subunit (human) (UniProt Q96RD7). The data set is described as follows: single-molecule photobleaching (TIRF microscopy), subunit counting; GFP-tagged concatemers in the plasma membrane of HEK293T cells 5-7 h after transfection; photobleaching steps fitted by binomial distributions assuming ~65% of GFP is fluorescent.

Data set [2] concerns the target 3(2CT)-GFP, GFP-tagged trimeric concatemer of two full-length PANX1 subunits and a C-terminally truncated PANX1 subunit (human) (UniProt Q96RD7). Kind of data set: cross-linking; HEK293T cells surface-biotinylated (Sulfo-NHS-LC-Biotin, 4 °C, 30 min), then cross-linked with 1.8 mM disuccinimidyl suberate at 4 °C for 1 h; streptavidin precipitation and western blot; not quantitative according to the paper.

Data set [3] shares this target. Kind of data set: single-molecule photobleaching (TIRF microscopy), subunit counting; GFP-tagged concatemers in the plasma membrane of HEK293T cells 5-7 h after transfection; photobleaching steps fitted by binomial distributions assuming ~65% of GFP is fluorescent.
In data set [4] the target is caspase 3-cleaved PANX1 (C-terminally cleaved human PANX1) (human). The data set is described as follows: SEC; purified PANX1 in amphipol A8-35 on an SRT-C 300 column (Sepax); oligomer size judged from the elution volume. On the technique in general: SEC sorts molecules by how far they enter the pores of the column.
Data set [5] deals with the molecule itself. Described as above.

What is called stoichiometry N is the number of molecules, sites or subunits per partner or assembly. In data set [1], “2(1CT)-GFP, GFP-tagged tandem dimer linking a full-length PANX1 subunit to a C-terminally truncated PANX1 subunit (from UniProt Q96RD7 1-426)” had a stoichiometry N of 3.
On to “3(2CT)-GFP, GFP-tagged trimeric concatemer of two full-length PANX1 subunits and a C-terminally truncated PANX1 subunit (from UniProt Q96RD7 1-426; Q96RD7 1-426)”, for which the stoichiometry N in data set [2] and in data set [3] was 2 throughout.
In turn, “caspase 3-cleaved PANX1 (C-terminally cleaved human PANX1) (domain or fragment)” showed a stoichiometry N in data set [4] of 6.

B1: full-length human PANX1 (Pannexin 1) with a C-terminal enterokinase cleavage site and hexahistidine tag (natural protein, UniProt Q96RD7-1 1-426, looked up)
chain: MAIAQLATEYVFSDFLLKEPTEPKFKGLRLELAVDKMVTCIAVGLPLLLISLAFAQEISIGTQISCFSPSSFSWRQAAFVDSYCWAAVQQKNSLQSESGNLPLWLHKFFPYILLLFAILLYLPPLFWRFAAAPHICSDLKFIMEELDKVYNRAIKAAKSARDLDMRDGACSVPGVTENLGQSLWEVSESHFKYPIVEQYLKTKKNSNNLIIKYISCRLLTLIIILLACIYLGYYFSLSSLSDEFVCSIKSGILRNDSTVPDQFQCKLIAVGIFQLLSVINLVVYVLLAPVVVYTLFVPFRQKTDVLKVYEILPTFDVLHFKSEGYNDLSLYNLFLEENISEVKSYKCLKVLENIKSSGQGIDPMLLLTNLGMIKMDVVDGKTPMSAEMREEQGNQTAELQGMNIDSETKANNGEKNARQRLLDSSC
notes: Pannexin 1 (PANX1), human, NM_015368, isoform 1, 426 a.a., full length; No removal of the tag by enterokinase is described; The purified protein was probed with anti-pentaHis in a purity western; also called full-length PANX1; source: Sf9 (baculovirus), purified from membranes (TALON cobalt resin, amphipol A8-35 exchange, SEC)
Regarding B1, the “stoichiometry N” value in data set [5] stood at 6.
